Reference: article PMC10646970

Molecular target: PD-L1 (programmed cell death ligand 1), N-terminal domain

wild-type (natural) PD-1 (from UniProt Q15116 25-170) (natural protein)
increase in IFN-gamma production in MDA-MB-231/PBMC coculture, 10 ug/mL protein, 48 h, ELISA; PD-L1 is that on the tumour cells; pair blocked: PD-1 on PBMCs / PD-L1: 92%
